Data published in patent publication US20100261220A1.

Tests used:
[1] = tested on: brain β-tubulin (taxotere-stabilized brain microtubules, Example VII)
[2] = tested on: brain α-tubulin (taxotere-stabilized brain microtubules, Example VII)
[3] = tested on: adult murine brain tubulin
[4] = tested on: young murine brain tubulin
[5] = tested on: HeLa tubulin
[6] = tested on: α-tubulin of taxotere-stabilized mouse brain microtubules
[7] = tested on: NAP proteins
[8] = molecular target: β-tubulin of taxotere-stabilized mouse brain microtubules (mouse); assay: cell-based or functional assay
[9] = molecular target: α-tubulin of taxotere-stabilized mouse brain microtubules (mouse); assay: cell-based or functional assay

Which “in vitro tubulin glycylation activity (3H-glycine incorporation)” value (“in vitro tubulin glycylation activity” below) [1] does the source give for “GFP-Ttll3Ap (Tetrahymena Ttll3Ap with N-terminal GFP)” here?
The value was “A GFP-Ttll3Ap-enriched extract showed a strong increase in glycylation activity on α- and β-tubulin”.

What about the “in vitro tubulin glycylation activity” value [2] of the same substance?
Its value is “A GFP-Ttll3Ap-enriched extract showed a strong increase in glycylation activity on α- and β-tubulin”.

Which “in vitro tubulin glycylation activity” value [2] does the source give for “GFP-Ttll3Bp (Tetrahymena Ttll3Bp with N-terminal GFP)” here?
The value was “the GFP-Ttll3Bp-enriched extract had increased activity on α-tubulin”.

Which “in vitro glutamylation of microtubules (3H-glutamate, fluorogram)” value (shortened to “in vitro glutamylation of microtubules”) [3] does the source give for “GFP-Ttll6Ap (full-length Tetrahymena Ttll6Ap with N-terminal GFP)” here?
The value was “Enriched GFP-Ttll6Ap strongly modified microtubules made of adult brain tubulin”.

And the “in vitro glutamylation of unpolymerized tubulin (3H-glutamate, fluorogram)” value [3]?
The value was “enriched GFP-Ttll6Ap did not modify unpolymerized adult brain tubulin”.

What about the “in vitro glutamylation of microtubules” value [4] of the same substance?
Its value is “less efficiently microtubules made of young brain tubulin”.

What about the “in vitro glutamylation of microtubules” value [5] of the same substance?
The value was “failed to detectably modify microtubules made of HeLa tubulin”.

With “Ttll1p-GFP (Tetrahymena thermophila Ttll1p with an N-terminal GFP)” as the substance, how does the “in vitro glutamylase activity of the anti-GFP immunoprecipitate” value [6] read?
Its value is “a glutamylase activity directed mostly toward α-tubulin was co-immunoprecipitated with anti-GFP antibodies from extracts of overexpressing cells”.

For “Ttll6ApΔ710-GFP (truncated Tetrahymena Ttll6Ap, amino acid codons 1-710, with N-terminal GFP)”, which “in vitro glutamylase activity” value [7] is on record?
The value was “No in vitro activity toward NAP proteins was detected”.

For “Ttll6ApΔ710-GFP (truncated Tetrahymena Ttll6Ap, amino acid codons 1-710, with N-terminal GFP) (from UniProt P42212 1-238) (enzyme)”, which in vitro glutamylase activity of extracts of overexpressing cells, compared to non-induced cells [8] is on record?
The in vitro glutamylase activity of extracts of overexpressing cells, compared to non-induced cells was 100 fold.

And the in vitro glutamylase activity of extracts of overexpressing cells, compared to non-induced cells [9]?
Its in vitro glutamylase activity of extracts of overexpressing cells, compared to non-induced cells is 10 fold.
